The nature of assay [1]: Reactivity of 9D2 and annexin V with plastic-immobilized phospholipids (panel). It is filed as binding. Here is the method: Phospholipids were dissolved in n-hexane to a concentration of 50 μg/ml. 100 μl of this solution was added to wells of 96-well microtiter plates. After evaporation of the solvent in air, the plates were blocked for 2 h with 10% fetal bovine serum diluted in DPBS containing 2 mM Ca^2+ (binding buffer).
9D2 antibody or annexin V were diluted in the binding buffer in the presence of 10% serum at an initial concentration of 6.7 nM. Serial two-fold dilutions were prepared in the plates (100 μl per well). The plates were then incubated for 2 h at room temperature. The plates were washed and the 9D2 and annexin V were detected by goat anti-rat IgM conjugated to HRP and rabbit anti-human annexin V followed by goat anti-rabbit IgG conjugated to HRP (all diluted 1:1000), respectively. Secondary reagents were detected by using chromogenic substrate OPD followed by reading plates at 490 nm using a microplate reader (Molecular Devices, Palo Alto, Calif.).
The specificity of the 9D2 antibody binding was validated by using control rat IgM of irrelevant specificity (Pharmingen, San Diego, Calif.). The specificity of annexin V binding to phospholipids, which is Ca^2+-dependent, was determined by diluting the reagent in the DPBS containing 5 mM EDTA. Additional negative controls consisted of washing the plates with the binding buffer containing 0.2% of a detergent Tween 20. This treatment extracts lipids, thus removing the phospholipid that was absorbed to plastic. Neither 9D2 antibody nor annexin V bound to detergent-washed plates.

The nature of assay [2]: Competition of 9D2 and annexin V for binding to immobilized PS. The following applies: competitor in 10-fold molar excess. The method, then: Biotinylated 9D2 antibody and annexin V were prepared by incubating purified proteins with a 10-fold molar excess of N-hydroxysuccinimide biotin (Sigma, MO) for 1 h at room temperature. Free biotin was removed by dialysis against PBS. […] For competition studies, […] biotinylated proteins were premixed with a 10-fold molar excess of unmodified proteins. The mixtures were then added to PS-coated plates. Bound reagents were detected by streptavidin-HRP conjugate diluted 1:1000. The binding to PS of each reagent in the absence of a competitor was taken as the 100% value.

Assay [3] in a line: 3G4 reactivity with plastic-immobilized phospholipids and liposome competition. It is filed as binding. Here is the method:
Phospholipids were dissolved in n-hexane to a concentration of 50 μg/ml. 100 μl of this solution was added to wells of 96-well microtiter plates. After evaporation of the solvent in air, the plates were blocked for 2 h with 10% FBS diluted in DPBS containing 2 mM Ca^2+ (binding buffer). […] Serial two-fold dilutions were prepared in the plates (100 μl per well). The plates were then incubated for 2 hr. at room temperature. […] Secondary reagents were detected by using chromogenic substrate OPD followed by reading plates at 490 nm using a microplate reader (Molecular Devices, Palo Alto, Calif.).
Specificity of phospholipid recognition was further confirmed by competition assays with various liposomes. […] The solutions were dried under nitrogen to form a thin layer in a round-bottomed glass flask. 10 ml of Tris buffer (0.1 M, pH 7.4) were then added and the flask was sonicated five times for 2 min. […] The mixture was added to phospholipid-coated plates.
Liposomes were prepared from solutions of 5 mg of a single phospholipid in chloroform. The solutions were dried under nitrogen to form a thin layer in a round-bottomed glass flask. Ten ml of Tris buffer (0.1 M, pH 7.4) were then added and the flask was sonicated five times for 2 min. […] The mixture was added to PS-coated plates (after standard blocking), incubated for 1 hour, washed and the secondary antibody added. After 1 hour, the plates were washed and developed for 5 minutes using OPD.

For the next assay, the system named is WiDr (colon carcinoma). The experiment in a line: WiDr colon carcinoma model. It is filed as in vivo, mouse. The following applies: 100 μg 3×/week from day 5; preliminary study. Here is the method:
Treatment was started on day 5, when the tumors were small (10 mice per group). 100 μg of each antibody was injected 3×/week and tumor growth monitored.

Another assay relates to dendritic cells. The experiment in a line: DC uptake of apoptotic tumor cells. It is filed as cell-based. The following applies: Fc(γ)R mediated internalization. An excerpt: The inventors therefore envision using the anti-PS antibodies of the present invention to enhance both […] and cellular anti-tumor immunity, and boost the efficacy of ATC based DC tumor vaccines.

Assay [4] can be described thus: Anti-PS ELISA in OVA or sera of different species. It is filed as binding. The method, then:
The assay was performed as follows (see also, Ran et al., 2005, specifically incorporated herein by reference). PS-coated Immunlon 1B microtiter plates were blocked overnight in 1% OVA (w/v). […] Dilutions were performed in 1% OVA or 10% non-heat inactivated sera from cow, human, rat or mouse. […] All ELISA studies were performed at least three times.

The subject of assay [5] is ABAE cells with exposed PS. Put plainly: Live-cell binding assay on LPC-treated endothelial cells. It counts as cell-based, bovine. The following applies: DMEM+10% FBS. The method in brief:
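ABAE cells cultured overnight were treated with 200 μM lysophosphatidylcholine to expose PS, then fixed in 4% paraformaldehyde and antibody binding was detected with biotin anti-mouse secondary plus FITC-streptavidin, with DAPI counterstain. Binding area is expressed as FITC/DAPI pixel ratio relative to basal binding, averaged over five 200× images (±SD).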

“Also recorded” adds a separate entry of the source.

Take “Annexin V: High affinity PS binding ligand; natural ligand binding anionic phospholipids and PE”: in assay [1], the “binding to heparin, heparan sulfate or double or single stranded DNA” value was “did not bind detectably” and the “order of strength of binding to phospholipids in ELISA” value is given as “PI>PS=PE=PA=CL>PG”. The “effect of EDTA on binding to anionic phospholipids” value in assay [1] (5 mM EDTA) is on record as “abolished”. In addition, in assay [2], the “Binding (% Control) of Biotinylated 9D2 to PS” value is listed as 93% and the “Binding (% Control) of Biotinylated annexin V to PS” value is listed as 8%.

B1: 3G4: Mouse IgG3 kappa monoclonal antibody to PS and anionic phospholipids; binding mediated by β2-glycoprotein I (antibody, listed as Mus musculus)
VH: MGWTWIFILILSVTTGVHSEVQLQQSGPELEKPGASVKLSCKASGYSFTGYNMNWVKQSHGKSLEWIGHIDPYYGDTSYNQKFRGKATLTVDKSSSTAYMQLKSLTSEDSAVYYCVKGGYYGHWYFDVWGAGTTVTVSSATTTAPSVYPLVP
VL: MDMRAPAQILGFLLLLFPGTRCDIQMTQSPSSLSASLGERVSLTCRASQDIGSSLNWLQQGPDGTIKRLIYATSSLDSGVPKRFSGSRSGSDYSLTISSLESEDFVDYYCLQYVSSPPTFGAGTKLELKRADAAPTVFIFGRIP
In the case of B1, the “binding to neutral phospholipids (PE, PC and SM) in ELISA” value in assay [3] was “does not bind”. The “binding to anionic phospholipid-coated plates” value in assay [3] (1 mg/ml human β2-glycoprotein I, no serum) is “Full binding was restored”. Moreover, the “effect of EDTA on binding” value in assay [3] (5 mM EDTA) was “unaffected”. Also, the “reduction of binding to anionic phospholipid-coated plates” value in assay [3] (absence of serum) worked out at 90%. In addition, in assay [3] (liposomes of single phospholipids), the “competition by phospholipid liposomes” value is “blocked by liposomes prepared from PS, PA, PI and CL; also recorded: blocked by liposomes prepared from anionic phospholipids”. The tumor growth result in the assay on WiDr (colon carcinoma) is “slowed tumor growth to essentially the same degree”. Besides, in the assay with dendritic cells, the “enhancement of DC uptake of apoptotic tumor cells” value is 300%. Moreover, the “binding to PS” value in assay [4] (10% mouse serum) is “did not bind PS”; in assay [4] (10% rat and human serum), “bound PS”; in assay [4] (hamster, ferret, guinea pig, rabbit and monkey serum), “bound PS”. The “binding to PS-coated microtiter plates” value is “binds PS weakly” in assay [4] (dilutions in 1% OVA, listed as 3G4 purified from SCM); “no longer binds PS” in assay [4] (dilutions in 1% OVA, listed as 3G4 purified from SFM); “binds to PS-coated microtiter plates” in assay [4] (dilutions in 10% FBS). Besides, the “binding to LPC-treated ABAE cells” value in assay [5] (20 nM) was “bound to LPC-treated ABAE cells”. Moreover, the “increase in area of binding upon LPC-treatment” value in assay [5] (200 μM LPC) is “greater than 500 fold”.
